Experimental findings from paper PMC3690454, “14-3-3 Proteins Interact with a Hybrid Prenyl-Phosphorylation Motif to Inhibit G Proteins” (Cell, 2013) are described below.

Square brackets hold non-standard residues; d marks the D form. Ends that are not written are not given here. * marks the point of attachment. Geranylgeranyl = CC(C)=CCC/C(C)=C/CC/C(C)=C/CC/C(C)=C/C*; Biotin = O=C1N[C@H]2[C@H](CS[C@H]2CCCCC(=O)*)N1; pS = N[C@@H](COP(=O)(O)O)C(=O)O; Ahx = NCCCCCC(=O)O Where only a bound is given, the exact number is not on record here.

The target in assay [1] is T1, hexa-His-tagged 14-3-3ζ (UniProt P63104 1-245).
T1 construct: 14-3-3ζ, expressed essentially as in Kostelecky et al., 2009; eluted as a dimer of ~60 kDa; also called recombinant 14-3-3ζ; 14-3-3ζ domain; source: E. coli BL21(DE3) Star, purified (HisTrap, size-exclusion chromatography)
T1 sequence: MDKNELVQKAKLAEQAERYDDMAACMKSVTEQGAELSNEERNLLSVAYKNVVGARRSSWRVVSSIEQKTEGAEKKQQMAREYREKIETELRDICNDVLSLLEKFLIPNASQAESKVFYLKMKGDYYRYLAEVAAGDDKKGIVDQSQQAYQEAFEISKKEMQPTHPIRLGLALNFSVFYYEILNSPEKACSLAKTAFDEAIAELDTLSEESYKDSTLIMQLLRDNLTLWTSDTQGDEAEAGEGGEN
The assay is described as follows: BLI; Octet RED96; biotinylated peptides immobilised on streptavidin biosensors; dilution series of 14-3-3ζ; 25 mM Tris, 150 mM NaCl, 0.1% Tween-20; KD of +P-F by steady-state analysis. The conditions noted are these: both partners purified. (In general: BLI is a label-free optical method that tracks binding on a fibre tip over time.)

The target of assay [2] is T2, hexa-His-tagged 14-3-3ζ (UniProt P63104 1-245).
T2 construct: 14-3-3 protein zeta; expressed and purified essentially as in Kostelecky et al., 2009; eluted as a dimer of ~60 kDa; the ITC methods call it 'the 14-3-3ζ domain'; source: E. coli BL21(DE3) Star, purified (HisTrap, size-exclusion chromatography)
T2 sequence: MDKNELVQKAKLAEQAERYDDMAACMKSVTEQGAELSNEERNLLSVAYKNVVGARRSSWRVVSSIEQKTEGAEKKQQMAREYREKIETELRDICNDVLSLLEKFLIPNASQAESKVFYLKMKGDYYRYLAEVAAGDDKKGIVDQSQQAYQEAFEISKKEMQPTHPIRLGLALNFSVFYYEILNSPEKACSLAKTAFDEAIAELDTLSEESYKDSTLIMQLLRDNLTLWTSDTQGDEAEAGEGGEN
The assay is described as follows: BLI; Octet RED96; biotinylated peptides immobilised on streptavidin-coated biosensors (1 μg/ml, 300 s); dilution series of 14-3-3ζ for 300 s, dissociation 300 s; BI buffer 25 mM Tris, 150 mM NaCl, 0.1% Tween-20; data of a typical experiment (n ≥ 3). The conditions noted are these: both partners purified.

B1: biotinylated Rap1A C-terminal peptide, phosphorylated and geranylgeranylated (peptide)
peptide: {Biotin-Ahx}-EKKKPKKK[pS]C(Geranylgeranyl)
notes: C terminus of Rap1A up to the prenylated C181; also called Rap1A peptide; source: synthetic peptide
B1 gave a Kd in assay [1] of about 25 nM.

B2: Rap1A C-terminal peptide, phosphorylated, not geranylgeranylated (biotinylated) (peptide)
peptide: EKKKPKKK[pS]C
modifications: not fully specified (N-terminus); also: biotinylated
notes: Rap1A C-terminal peptide as Dm2 but without the geranylgeranyl modification; also called Rap1A+P-GG; nonmodified phosphopeptide; source: synthetic peptide
With B2, in assay [2], the equilibrium dissociation constant (Kd) is over 1000 nM.

Usually Kd stands for the constant that tells how readily two partners part at equilibrium. Low readings indicate a tighter complex, high ones a looser complex.
